Measurements reported in article PMC9881204, “Robust Covalent Aptamer Strategy Enables Sensitive Detection and Enhanced Inhibition of SARS-CoV-2 Proteins”.

B1: NHS-RApt (CRApt) (ssDNA)
DNA: ATTACCGATGGCTTGTTTGTAATGTAGGGTTCCGTCGGAT
modifications: 5' NH2 conjugated to disuccinimidyl suberate (NHS ester)
B2: RApt (ssDNA)
DNA: B1 DNA
B3: B61 (ssDNA)
DNA: GCTGGATGTTGACCTTTACAGATCGGATTCTGTGGGGCGTTAAACTGACACATCCAGCTTTTTTTT
B4: NHS-B61 (ssDNA)
DNA: B3 DNA
modifications: 5' NH2 conjugated to disuccinimidyl suberate (NHS ester)
B5: B15 (ssDNA)
DNA: GCTGGATGTTCATGCTGGCAAAATTCCTTAGGGGCACCGTTACTTTGACACATCCAGCTTTTTTTT
B6: NHS-B15 (ssDNA)
DNA: B5 DNA
modifications: 5' NH2 conjugated to disuccinimidyl suberate (NHS ester)

Columns and labels:
[1] = biological target: T1, SARS-CoV-2 spike RBD, wild type (SARS-CoV-2 (wild type), UniProt P0DTC2 319-541); experiment: competition with ACE2-coated beads, flow cytometry; 10% FBS, 37 C; SPR: PBS + 5 mM MgCl2, 300 mM NaCl, 400 nM BLib, 2 ug/mL salmon sperm DNA, 25 C; flow cytometry in binding buffer, RT; neutralization in 10% FBS, 37 C; cross-linking in PBS pH 7.4 (SI: HEPES), RT; details: protein: commercial
[2] = biological target: T1, SARS-CoV-2 spike RBD, wild type; experiment: flow cytometry, RBD-coated Ni beads; room temperature; apparent (covalent cross-link); SPR: PBS + 5 mM MgCl2, 300 mM NaCl, 400 nM BLib, 2 ug/mL salmon sperm DNA, 25 C; flow cytometry in binding buffer, RT; neutralization in 10% FBS, 37 C; cross-linking in PBS pH 7.4 (SI: HEPES), RT; details: protein: commercial
[3] = biological target: T1, SARS-CoV-2 spike RBD, wild type; experiment: flow cytometry, RBD-coated Ni beads; room temperature; SPR: PBS + 5 mM MgCl2, 300 mM NaCl, 400 nM BLib, 2 ug/mL salmon sperm DNA, 25 C; flow cytometry in binding buffer, RT; neutralization in 10% FBS, 37 C; cross-linking in PBS pH 7.4 (SI: HEPES), RT; details: protein: commercial
[4] = biological target: T2, SARS-CoV-2 nucleocapsid protein (NP) (SARS-CoV-2, UniProt P0DTC9 1-419); experiment: SPR; Kd value only in Fig 3a; about 10-fold weaker than antibodies; SPR: PBS + 5 mM MgCl2, 300 mM NaCl, 400 nM BLib, 2 ug/mL salmon sperm DNA, 25 C; flow cytometry in binding buffer, RT; neutralization in 10% FBS, 37 C; cross-linking in PBS pH 7.4 (SI: HEPES), RT; details: protein: commercial; tags: His; chain copies: 2; label: 3' biotin
[5] = biological target: T2, SARS-CoV-2 nucleocapsid protein (NP); experiment: SPR; value only in Fig 3a; covalent; SPR: PBS + 5 mM MgCl2, 300 mM NaCl, 400 nM BLib, 2 ug/mL salmon sperm DNA, 25 C; flow cytometry in binding buffer, RT; neutralization in 10% FBS, 37 C; cross-linking in PBS pH 7.4 (SI: HEPES), RT; details: protein: commercial; tags: His; chain copies: 2; label: 3' biotin

Binder | binding result [4] | binding result [5] | other results
B1 |  |  | IC50 [1]: 0.42 nM; Kd [2]: 0.24 nM
B2 |  |  | Kd [3]: 5.91 nM
B3 | binds |  | 
B4 |  | binds | 
B5 | binds |  | 
B6 |  | binds | 
